Experimental data reported in patent US20100204147A1, “Methods For Delivering Thymosin Beta 4, Analogues, Isoforms and Other Derivatives” (REGENERX BIOPHARMACEUTICALS, INC., priority 2003, published 2010).

Tests used:
fibrinogen = target: T1, fibrinogen (Homo sapiens, UniProt P02671); assay: Factor XIIIa-mediated incorporation of FITC-labeled thymosin β4 into fibrinogen (spectrophotometric); type: biochemical; conditions: fibrinogen 9 μM, thymosin β4 30 μM, factor XIIIa, 4 hours, 37° C.
T1 construct: purchased Enzyme Research Laboratories (South Bend, Ind.)
T1 sequence (P02671 20-644 isoform P02671-2 limits assumed): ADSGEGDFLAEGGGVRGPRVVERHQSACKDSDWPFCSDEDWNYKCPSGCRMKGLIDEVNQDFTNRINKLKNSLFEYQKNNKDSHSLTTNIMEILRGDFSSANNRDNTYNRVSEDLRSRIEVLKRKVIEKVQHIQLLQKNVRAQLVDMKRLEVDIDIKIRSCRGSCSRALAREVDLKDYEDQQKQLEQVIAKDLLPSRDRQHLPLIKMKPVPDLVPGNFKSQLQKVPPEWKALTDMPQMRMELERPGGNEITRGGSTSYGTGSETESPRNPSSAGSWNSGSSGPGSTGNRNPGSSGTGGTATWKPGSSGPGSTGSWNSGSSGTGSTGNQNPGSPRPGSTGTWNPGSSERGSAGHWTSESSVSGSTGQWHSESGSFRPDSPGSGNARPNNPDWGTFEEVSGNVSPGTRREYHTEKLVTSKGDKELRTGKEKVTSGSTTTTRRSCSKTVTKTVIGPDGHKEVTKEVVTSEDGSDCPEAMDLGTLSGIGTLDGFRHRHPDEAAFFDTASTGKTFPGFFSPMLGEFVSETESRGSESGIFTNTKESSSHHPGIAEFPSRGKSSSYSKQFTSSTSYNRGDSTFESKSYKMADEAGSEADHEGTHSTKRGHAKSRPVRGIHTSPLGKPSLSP
T1 sequence (P02675 31-491 partner): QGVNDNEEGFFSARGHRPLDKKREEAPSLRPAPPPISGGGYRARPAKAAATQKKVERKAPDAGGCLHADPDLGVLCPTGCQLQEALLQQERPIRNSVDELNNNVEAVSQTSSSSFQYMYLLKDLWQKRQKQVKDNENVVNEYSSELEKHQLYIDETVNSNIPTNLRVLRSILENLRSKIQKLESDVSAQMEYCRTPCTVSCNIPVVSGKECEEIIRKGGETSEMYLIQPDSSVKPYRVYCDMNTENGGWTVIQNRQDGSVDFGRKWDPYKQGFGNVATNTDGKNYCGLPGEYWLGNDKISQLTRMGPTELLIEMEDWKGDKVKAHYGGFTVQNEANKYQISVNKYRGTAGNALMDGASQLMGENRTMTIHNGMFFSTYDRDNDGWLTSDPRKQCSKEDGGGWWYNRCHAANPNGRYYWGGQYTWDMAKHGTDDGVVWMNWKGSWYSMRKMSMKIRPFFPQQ
T1 sequence (P02679 27-437 isoform P02679-2 partner limits assumed): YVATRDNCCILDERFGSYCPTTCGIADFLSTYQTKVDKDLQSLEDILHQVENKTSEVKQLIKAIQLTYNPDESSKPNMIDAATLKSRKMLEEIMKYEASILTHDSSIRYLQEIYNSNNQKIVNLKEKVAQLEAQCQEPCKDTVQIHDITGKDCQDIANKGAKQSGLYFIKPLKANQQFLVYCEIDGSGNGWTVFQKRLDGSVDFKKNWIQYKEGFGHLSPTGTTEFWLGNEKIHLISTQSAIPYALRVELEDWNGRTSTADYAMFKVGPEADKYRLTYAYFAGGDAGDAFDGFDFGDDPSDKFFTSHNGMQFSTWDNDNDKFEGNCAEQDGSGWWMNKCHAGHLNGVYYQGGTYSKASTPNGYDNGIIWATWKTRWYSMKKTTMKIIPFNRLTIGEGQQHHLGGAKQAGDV
Experimental: (§1) Reactions of incorporation of FITC-labeled and unlabeled thymosin β4 into fibrinogen and fibrin were performed in Eppendorf tubes containing a mixture of fibrinogen at 3 mg/mL (9 μM) and thymosin β4 or FITC-labeled thymosin β4 at […] (30 μM) in 100 μL TBS with 2.5 mM CaCl2. The reactions were initiated by addition of FXIIIa(Ca) or FXIIIa(Thr) to final concentration of 30 μg/mL. The final concentration of thrombin in the FXIIIa(Thr)-containing mixtures was made at 2.5 NIH u/mL, sufficient to rapidly form fibrin clot which was observed visually. The reactions with FITC-labeled thymosin β4 lasted for 4 hours at 37° C. in the dark and were stopped by heat inactiviation of the enzymes in boiling water for 5 min during fibrinogen and fibrin denatured and precipitated. The pellets were centrifuged and washed 3 times in TBS and then solubilized. The amounts of fibrin(ogen) and FITC-labeled thymosin β4 in the solubilized pellet were determined spectrophotomertrically using absorption molar coefficients E280,1%=15.0 and ε495=72,000 M^−1cm^−1, respectively. To prepare samples with unlabeled thymosin β4 for analysis by SDS-PAGE and Western blot the reaction mixtures at the indicated time were heat-inactivated as above and solubilized by addition of sample buffer (Invitrogen) containing SDS and reducing agent.

fibrin = target: T2, fibrin (Homo sapiens, UniProt P02671); assay: Factor XIIIa-mediated incorporation of FITC-labeled thymosin β4 into fibrin (spectrophotometric); type: biochemical; conditions: fibrinogen 9 μM, thymosin β4 30 μM, factor XIIIa with thrombin, 4 hours, 37° C.
T2 construct: purchased Enzyme Research Laboratories (South Bend, Ind.); host or cells: fibrin generated in the well or tube from the purchased fibrinogen with bovine thrombin
T2 sequence (P02671 36-629): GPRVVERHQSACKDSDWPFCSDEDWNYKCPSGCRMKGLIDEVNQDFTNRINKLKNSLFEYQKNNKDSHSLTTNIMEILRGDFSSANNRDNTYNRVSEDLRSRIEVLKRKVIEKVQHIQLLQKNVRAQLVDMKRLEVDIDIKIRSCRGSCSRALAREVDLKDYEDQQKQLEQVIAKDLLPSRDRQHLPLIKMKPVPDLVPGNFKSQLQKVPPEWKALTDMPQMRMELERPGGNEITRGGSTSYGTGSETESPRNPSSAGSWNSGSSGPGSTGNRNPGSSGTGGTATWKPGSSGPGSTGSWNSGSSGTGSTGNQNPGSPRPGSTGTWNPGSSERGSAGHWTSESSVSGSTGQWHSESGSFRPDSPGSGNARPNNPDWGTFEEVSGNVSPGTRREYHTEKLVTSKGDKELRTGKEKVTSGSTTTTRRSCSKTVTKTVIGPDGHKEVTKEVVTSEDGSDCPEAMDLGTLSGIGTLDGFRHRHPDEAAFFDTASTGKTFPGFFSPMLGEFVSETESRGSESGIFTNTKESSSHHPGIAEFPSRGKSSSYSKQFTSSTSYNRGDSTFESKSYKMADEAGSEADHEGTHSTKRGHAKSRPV
T2 sequence (P02675 45-491 partner): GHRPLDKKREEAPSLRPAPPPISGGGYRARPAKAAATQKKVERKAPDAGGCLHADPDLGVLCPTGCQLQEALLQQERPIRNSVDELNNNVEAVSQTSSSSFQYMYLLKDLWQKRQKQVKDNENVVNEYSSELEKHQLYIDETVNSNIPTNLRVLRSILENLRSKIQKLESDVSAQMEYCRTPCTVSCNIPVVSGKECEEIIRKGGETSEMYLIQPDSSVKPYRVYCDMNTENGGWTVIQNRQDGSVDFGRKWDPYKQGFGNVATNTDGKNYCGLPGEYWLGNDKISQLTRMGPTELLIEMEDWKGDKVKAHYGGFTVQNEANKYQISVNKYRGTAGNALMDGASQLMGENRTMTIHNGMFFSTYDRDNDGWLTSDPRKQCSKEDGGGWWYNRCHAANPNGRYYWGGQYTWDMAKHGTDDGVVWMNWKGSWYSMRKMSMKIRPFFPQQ
T2 sequence (P02679 27-437 isoform P02679-2 partner): T1 sequence (P02679 27-437 isoform P02679-2 partner limits assumed)
Experimental: as §1

Substance: FITC-thymosin β4: Fluorescence labeled thymosin β4 prepared by reaction with fluorescein isothiocyanate; 0.9 mole of FITC per mole of thymosin β4 [reference compound]
- degree of incorporation into fibrinogen (fibrinogen): about 0.2 moles per mole
- degree of incorporation into fibrin (fibrin): ~0.4 moles per mole
